The record followed here is US20220282217A1, “COMPOSITIONS AND METHODS FOR PREPARING T CELL COMPOSITIONS AND USES THEREOF” (priority 2019, published 2022).

One assay has as its target T1, HLA-A02.01 class I MHC molecule (prepared complex) (human). Kind of assay: dissociation of peptide-MHC-I complex at 37 C, 125I-labelled b2m, scintillation. As to conditions: remark: other sources report otherwise.
As for STVQLIMQL [EGFR_T790M peptide …, listing 1 of 2 here], the Stability (half-life (hr.)) is 0 min.

Regarding LIMQLMPFG [EGFR_T790M peptide …, listing 1 of 2 here], the Stability (half-life (hr.)) worked out at 0 min.

As to QLIMQLMPFG [EGFR_T790M peptide …, listing 1 of 2 here], the Stability (half-life (hr.)) was determined as 0 min.

Consider IMQLMPFGC [EGFR_T790M peptide …, listing 1 of 2 here], for which the Stability (half-life (hr.)) was 22.2 min.

The target of the next assay is HLA-A02.01 (human). Kind of assay: competition vs radiolabeled reference peptide on purified MHC I, gel filtration. Conditions: remark: other sources report otherwise.
A word on the IC50: it is the concentration needed to halve the response being measured. Read a low IC50 as greater potency. SVCFFFFSV came in with an IC50 of 175 nM.

The molecule MQLMPFGCLL gave an IC50 of 20 nM.

With LTINKEEAL, the IC50 was 4410 nM.

For IMQLMPFGC […, listing 2 of 2 here], the IC50 came out at 1610 nM. This IC50 lies about 2.7-fold lower than the previous one.

In turn, WLHKRGKYI gave a concentration for half-maximal inhibition (IC50) of 1250 nM.

PLYGLLLEML: the IC50 stood at 797 nM. This IC50 is about 1.6-fold lower than that of the molecule before.

LQSLPRFILM returned an IC50 of 413 nM.

Molecule QLIMQLMPF returned an IC50 of 227 nM.

Consider SLPRFILMEL, for which the IC50 was 26 nM.

For the molecule RVAKIADFGM, the concentration for half-maximal inhibition (IC50) turned out to be 125 nM.

The molecule LIMQLMPFG […, listing 2 of 2 here] came in with a concentration for half-maximal inhibition (IC50) of 3510 nM.

QLIMQLMPFG […, listing 2 of 2 here] returned an IC50 of 5930 nM.

Consider IMQLMPFGCL, for which the IC50 stood at 837 nM. This IC50 is about 7.1-fold lower than that of the molecule before.

The molecule STVQLIMQL […, listing 2 of 2 here] showed an IC50 of 8540 nM.

YMANGSLLN came in with an IC50 of 4440 nM. Against the preceding molecule, the IC50 is about 1.9-fold lower.

In turn, MANGSLLNYL showed an IC50 of 1080 nM.

VQLIMQLMPF gave an IC50 of 5490 nM.

The molecule SLLNYLREM showed a half-maximal inhibitory concentration (IC50) of 87 nM.

Another assay concerns the target HLA-B07.02 (human). Described as above. As to conditions: remark: other sources report otherwise.
Take WLHKRGKYI: the concentration for half-maximal inhibition (IC50) was 2650 nM.

For the molecule SLPRFILMEL, the IC50 is 583 nM.

RVAKIADFGM registered an IC50 of 9720 nM. This IC50 lies about 17-fold higher than the previous one.

In the case of MANGSLLNYL, the 50% inhibitory concentration (IC50) turned out to be 17700 nM. Compared with the last molecule, the IC50 is about 1.8-fold higher.

Take SLLNYLREM: the half-maximal inhibitory concentration (IC50) amounted to 1110 nM.

MQLMPFGCL: the half-inhibitory concentration (IC50) came out at 2270 nM.

The target of another assay is HLA-A24.02 (human). Described as above. As to conditions: remark: other sources report otherwise.
In the case of MQLMPFGCLL, the concentration for half-maximal inhibition (IC50) came out at 23600 nM.

Turning to PLYGLLLEML, the IC50 is 444 nM.

Regarding FLPSTLKSL, the 50% inhibitory concentration (IC50) came to 995 nM. Compared with the last molecule, the IC50 is about 2.2-fold higher.

SLPRFILMEL returned an IC50 of 2770 nM.

The molecule IMQLMPFGCL came in with an IC50 of 18100 nM.

For VQLIMQLMPF, the IC50 was found to be 4560 nM.

The target in the next assay is HLA-A02.01 (human). Kind of assay: competition with radiolabeled reference peptide, purified MHC I. Conditions: remark: other sources report otherwise.
Molecule CMGSMNRRPI registered an IC50 of 1990 nM.

Turning to GMNWRPILTI, the IC50 was determined as 282 nM.

MALNSEALSV displayed an IC50 of 129 nM.

Take LVVVGADGV: the Measured Affinity was determined as 977 nM.

The molecule WMTETLFDI returned an IC50 of 14 nM.

NQRPILTII registered an IC50 of 9610 nM.

LVVVGACGV came in with a Measured Affinity of 667 nM.

For the molecule SMNRRPILTI, the IC50 is 1200 nM.

For CMGGMNWRPI, the IC50 was determined as 346 nM.

For TQLARFFPI, the IC50 was 19 nM.

Another assay deals with HLA-A24.02 (human). The description is as above. Conditions: remark: other sources report otherwise.
In turn, WMTETLFDI yielded a half-inhibitory concentration (IC50) of 713 nM.

Regarding SMNRRPILTI, the IC50 stood at 16300 nM. This IC50 lies about 23-fold higher than the previous one.

Regarding CMGGMNWRPI, the IC50 is 4450 nM.

In turn, TQLARFFPI gave an IC50 of 52 nM.

In the next assay the target is HLA-A02.01 (human). Put plainly: pMHC-I complex dissociation at 37 C, 125I-b2m, half-life. Conditions: remark: other sources report otherwise.
SVCFFFFSV displayed a Stability (T1/2 (h)) of 9.4 h.

MQLMPFGCLL showed a Stability (T1/2 (h)) of 0.4 h.

Take LTINKEEAL: the Stability (T1/2 (h)) is 0 h.

With IMQLMPFGC […, listing 2 of 2 here], the Stability (T1/2 (h)) amounted to 0.4 h.

In the case of WLHKRGKYI, the Stability (T1/2 (h)) was 1.2 h.

PLYGLLLEML had a Stability (T1/2 (h)) of 0 h.

Molecule LQSLPRFILM registered a Stability (T1/2 (h)) of 0 h.

QLIMQLMPF: the Stability (T1/2 (h)) turned out to be 0.3 h.

As to SLPRFILMEL, the Stability (T1/2 (h)) is 0.5 h.

For the molecule RVAKIADFGM, the Stability (T1/2 (h)) came out at 0.5 h.

Consider LIMQLMPFG […, listing 2 of 2 here], for which the Stability (T1/2 (h)) worked out at 0 h.

As to QLIMQLMPFG […, listing 2 of 2 here], the Stability (T1/2 (h)) came out at 0 h.

On to IMQLMPFGCL, for which the Stability (T1/2 (h)) came out at 0.5 h.

For the molecule STVQLIMQL […, listing 2 of 2 here], the Stability (T1/2 (h)) came to 0 h.

In turn, YMANGSLLN had a Stability (T1/2 (h)) of 0 h.

Regarding MANGSLLNYL, the Stability (T1/2 (h)) came out at 0 h.

The molecule VQLIMQLMPF registered a Stability (T1/2 (h)) of 0 h.

With SLLNYLREM, the Stability (T1/2 (h)) is 3 h.

Consider MQLMPFGCL, for which the Stability (T1/2 (h)) was determined as 0.4 h.

Turning to YTLDVLERC, the Stability (T1/2 (h)) was 6.6 h.

The target of another assay is HLA-B07.02 (human). The assay is described as above. As to conditions: remark: other sources report otherwise.
As to WLHKRGKYI, the Stability (T1/2 (h)) was 0 h.

The molecule SLPRFILMEL had a Stability (T1/2 (h)) of 0.4 h.

As for RVAKIADFGM, the Stability (T1/2 (h)) was determined as 0.2 h.

MANGSLLNYL displayed a Stability (T1/2 (h)) of 0 h.

In the case of SLLNYLREM, the Stability (T1/2 (h)) worked out at 0 h.

For MQLMPFGCL, the Stability (T1/2 (h)) was 0 h.

The next assay concerns the target HLA-A24.02 (human). The assay is described as above. Conditions: remark: other sources report otherwise.
The molecule MQLMPFGCLL yielded a Stability (T1/2 (h)) of 0 h.

In the case of PLYGLLLEML, the Stability (T1/2 (h)) is 6.3 h.

As to FLPSTLKSL, the Stability (T1/2 (h)) came out at 1 h.

On to QLIMQLMPF, for which the Stability (T1/2 (h)) worked out at 0.4 h.

SLPRFILMEL returned a Stability (T1/2 (h)) of 0.2 h.

IMQLMPFGCL: the Stability (T1/2 (h)) is 0 h.

In the case of VQLIMQLMPF, the Stability (T1/2 (h)) worked out at 0 h.

Another assay deals with HLA class I molecule A02.01. Kind of assay: competition with radiolabeled reference peptide on purified MHC I. As to conditions: remark: other sources report otherwise.
As for LIVSRTLLL, the IC50 was determined as 174 nM.

In turn, FQNGKMALSA yielded an IC50 of 6160 nM.

In turn, ALQPLQPHA had an IC50 of 604 nM. Compared with the last molecule, the IC50 is about 10-fold lower.

The next assay has as its target HLA-A02.01 (human). Put plainly: pMHC-I dissociation half-life, 125I-b2m. As to conditions: remark: other sources report otherwise.
Turning to LVVVGAVGV, the Measured stability stood at 0.6 h.

Molecule CMGSMNRRPI gave a Stability (T1/2 (h)) of 0 h.

Turning to GMNWRPILTI, the Stability (T1/2 (h)) turned out to be 0.5 h.

In turn, MALNSEALSV showed a Stability (T1/2 (h)) of 0.7 h.

In turn, LVVVGADGV returned a Measured stability of 0 h.

WMTETLFDI returned a Stability (T1/2 (h)) of 4 h.

With NQRPILTII, the Stability (T1/2 (h)) was found to be 0 h.

Molecule LVVVGACGV gave a Measured stability of 0.6 h.

In turn, SMNRRPILTI returned a Stability (T1/2 (h)) of 0.3 h.

As to CMGGMNWRPI, the Stability (T1/2 (h)) was determined as 0.4 h.

TQLARFFPI displayed a Stability (T1/2 (h)) of 0 h.

A further assay deals with HLA-A24.02 (human). Put plainly: pMHC-I dissociation half-life, 125I-b2m. As to conditions: remark: other sources report otherwise.
Take WMTETLFDI: the Stability (T1/2 (h)) worked out at 0 h.

For SMNRRPILTI, the Stability (T1/2 (h)) was determined as 0 h.

Regarding CMGGMNWRPI, the Stability (T1/2 (h)) was determined as 0 h.

Molecule TQLARFFPI displayed a Stability (T1/2 (h)) of 0 h.

A further assay deals with HLA class I molecule B08.01. Put plainly: pMHC-I dissociation half-life, 125I-b2m. As to conditions: remark: other sources report otherwise.
FLLALWECSL: the Stability (T1/2 (h)) is 0 h.

Molecule FQNGKMALSA came in with a Stability (T1/2 (h)) of 0 h.

On to FLQEQYHEA, for which the Stability (T1/2 (h)) worked out at 0 h.

The target in a further assay is HLA class I molecule A02.01. Kind of assay: pMHC-I dissociation half-life, 125I-b2m. As to conditions: remark: other sources report otherwise.
On to FLLALWECSL, for which the Stability (T1/2 (h)) was found to be 10.8 h.

In turn, FQNGKMALSA came in with a Stability (T1/2 (h)) of 0 h.

FLQEQYHEA: the Stability (T1/2 (h)) was found to be 9.5 h.

The target of another assay is T1, HLA-A02.01 class I MHC molecule …. Kind of assay: displacement of radiolabeled reference peptide from class I MHC, gel filtration; 'Affinity (nM)'. Conditions: remark: other sources report otherwise. (In general: In gel filtration, larger molecules generally elute earlier.)
For the molecule STVQLIMQL [EGFR_T790M peptide …, listing 1 of 2 here], the IC50 is 7260 nM.

The molecule LIMQLMPFG [EGFR_T790M peptide …, listing 1 of 2 here] came in with an IC50 of 3340 nM. Compared with the last molecule, the IC50 is about 2.2-fold lower.

QLIMQLMPFG [EGFR_T790M peptide …, listing 1 of 2 here] showed an IC50 of 5210 nM.

In the case of IMQLMPFGC [EGFR_T790M peptide …, listing 1 of 2 here], the IC50 is 1210 nM.
